# From US20250026813A1 (published 2025)
# “And” between values parts separate entries of the source, which are not always exact repeats. Identical values can stand only once.
# What was measured:
# [1] = biological target: SARS-CoV-2 spike protein on live virus SARS-CoV-2 Victoria/01/2020 (SARS-CoV-2, UniProt P0DTC2 14-1273); test: cell-based or functional assay
# [2] = biological target: T1, Receptor binding domain (Neil King, University of Washington) (SARS-CoV-2, UniProt P0DTC2 328-531)
# [3] = biological target: SARS-CoV-2 spike receptor binding domain (RBD), antigen of Example 10 (SARS-CoV-2, UniProt P0DTC2 319-541)
# [4] = biological target: SARS-CoV-2 spike N-terminal domain (NTD), antigen of Example 10 (SARS-CoV-2, UniProt P0DTC2 14-305)
# [5] = biological target: RBD domain of the SARS-CoV-2 spike protein (Acro Biosystems SPD-C52H3), His tag (SARS-CoV-2, UniProt P0DTC2 319-537)
# [6] = biological target: SARS-CoV-2 spike protein receptor binding domain (isolated RBD) (SARS-CoV-2, UniProt P0DTC2 319-541); test: SPR (Biacore 8K), IgG1 captured via anti-hFc, RBD as analyte, 1:1 fit
# [7] = biological target: SARS-CoV-2 spike protein receptor binding domain (RBD) (SARS-CoV-2, UniProt P0DTC2 319-541); test: HT-SPR (Carterra LSA); IgG captured by anti-human Fc, RBD as analyte, 1:1 fit
# [8] = biological target: SARS-CoV-2 S2 spike domain (Sino Biological) (SARS-CoV-2, UniProt P0DTC2 686-1213)
# [9] = biological target: SARS-CoV-2 spike protein trimer, wild type (FIG. 2A sequence) with C-terminal trimerisation domain (SARS-CoV-2, UniProt P0DTC2 14-1213)
# [10] = biological target: T1, Receptor binding domain (Neil King, …); test: SPR (Biacore 8K), antibody captured by anti-hFc, RBD as analyte
binder,measurement,setting,value
"IMPI-059 (antibody, V domains shown) VH: EVQLVESGGGLIQPGGSLRLSCAASGFTVSSIYMSWVRQAPGKGLEWVSIIYSRGSTDYADSVKGRFTISRDISKNTLYLQMNSLRAEDTAVYYCARDGTMVRGVHAFDIWGQGTMVTVSS VL: DIQMTQSPPSLSASIGDRVTITCQASQDISNYLNWYQQKPGKAPKLLIYDASNLETGVPSRFSGSGSGTDFTLTISNLQPEDIVTYYCQQYDNLPSSFGQGTKLEIK [IMPI-059, listing 1 of 2 here]","IC50, live virus foci (plaque) reduction neutralisation assay on Vero cells",[1],0.026 nM
same,Kd,[2],< 1 nM
"IMPI-059 (antibody, V domains shown) VH: EVQLVESGGGLIQPGGSLRLSCAASGFTVSSIYMSWVRQAPGKGLEWVSIIYSRGSTDYADSVKGRFTISRDISKNTLYLQMNSLRAEDTAVYYCARDGTMVRGVHAFDIWGQGTMVTVSS VL: DIQMTQSPPSLSASIGDRVTITCQASQDISNYLNWYQQKPGKAPKLLIYDASNLETGVPSRFSGSGSGTDFTLTISNLQPEDIVTYYCQQYDNLPSSFGQGTKLEIK [IMPI-059, listing 2 of 2 here]",Kd,[3],2.3 nM
same,Kd,[4],1650 nM
"IMPI-002 (antibody, V domains shown) VH: EVQLVESGGGLIQPGGSLRLSCAASGVTVSSNYMSWVRQAPGKGLEGVSVIYSGGSTYYADSVKGRFTISRDNSKNTLYLQMNSLRAEDTAVYYCARDTVVYGMDVWGQGTTVTVSS VL: DIQLTQSPSFLSASVGDRVTITCWASQGISSYLAWYQQKPGKAPKLLIYAASTLQSGVPSRFSGSGSGTEFTLTISSLQPEDFATYYCQQLNSYPLTFGGGTKVEIK",HTRF deltaF,[5],172 deltaF
"IMPI-056 (antibody, V domains shown) VH: EVQLVESGGGLIQPGGSLRLSCAASGLTVSSNYMNWVRQAPGKKLEWVSVIYSGGSTFYADSVRGRFTISRDNSKNTLFLQMNSLRAEDSAVYYCARDLGPYGVDVWGQGTTVTVSS VL: DIQLTQSPSFLSASVGDRVTITCWASQGISSYLAWYQQKPGKAPKLLIYAASTLQSGVPSRFSGSGSGTEFTLTISSLQPEDFATYYCQQLNSYPLTFGQGTRLEIK [IMPI-056, listing 1 of 2 here]",Kd,[3],1.59 nM
same,Kd,[4],682 nM
"IMPI-052 (antibody, V domains shown) VH: EVQLVESGGGLIQPGGSLRLSCAASGVTVSSNYMNWVRQAPGKGLEGVSVIYSGGTTYYADSVKGRFTISRDNSKNTLYLQMNSLRAEDTAVYYCARDTVVYGMDVWGQGTTVTVSS VL: DIQLTQSPSFLSASVGDRVTITCWASQGISSYLAWYQQKPGKAPKLLIYTASTLQSGVPSRFSGSGSGTEFTLTISSLQPEDFATYYCQQLNSYPLTFGGGTKVEIK [IMPI-052, listing 1 of 3 here]",Kd,[6],13.2 nM
"IMPI-052 (antibody, V domains shown) VH: EVQLVESGGGLIQPGGSLRLSCAASGVTVSSNYMNWVRQAPGKGLEGVSVIYSGGTTYYADSVKGRFTISRDNSKNTLYLQMNSLRAEDTAVYYCARDTVVYGMDVWGQGTTVTVSS VL: DIQLTQSPSFLSASVGDRVTITCWASQGISSYLAWYQQKPGKAPKLLIYTASTLQSGVPSRFSGSGSGTEFTLTISSLQPEDFATYYCQQLNSYPLTFGGGTKVEIK [IMPI-052, listing 2 of 3 here]",HTRF deltaF,[5],229 deltaF
"IMPI-029 (antibody, V domains shown) VH: EVQLVESGGGLIQPGGSLRLSCAASGVTVSSNYMNWVRQAPGKGLEWVSVIYSGGSTYYADSVKGRFTISRDNSKNTLFLQMNSLRAEDSAVYYCARDLGPYGVDVWGQGTTVTVSS VL: DIQLTQSPSFLSASVGDRVTITCWASQGISSYLAWYQQKPGKAPKLLIYAASTLQSGVPSRFSGSGSGTEFTLTISSLQPEDFATYYCQELNSYPLTFGQGTRLEIK",Kd,[2],< 1 nM
"IMPI-056 (antibody, V domains shown) VH: EVQLVESGGGLIQPGGSLRLSCAASGLTVSSNYMNWVRQAPGKKLEWVSVIYSGGSTFYADSVRGRFTISRDNSKNTLFLQMNSLRAEDSAVYYCARDLGPYGVDVWGQGTTVTVSS VL: DIQLTQSPSFLSASVGDRVTITCWASQGISSYLAWYQQKPGKAPKLLIYAASTLQSGVPSRFSGSGSGTEFTLTISSLQPEDFATYYCQQLNSYPLTFGQGTRLEIK [IMPI-056, listing 2 of 2 here]",Kd,[2],< 1 nM
"IMPI-052 (antibody, V domains shown) VH: EVQLVESGGGLIQPGGSLRLSCAASGVTVSSNYMNWVRQAPGKGLEGVSVIYSGGTTYYADSVKGRFTISRDNSKNTLYLQMNSLRAEDTAVYYCARDTVVYGMDVWGQGTTVTVSS VL: DIQLTQSPSFLSASVGDRVTITCWASQGISSYLAWYQQKPGKAPKLLIYTASTLQSGVPSRFSGSGSGTEFTLTISSLQPEDFATYYCQQLNSYPLTFGGGTKVEIK [IMPI-052, listing 3 of 3 here]",Kd,[7],24.1 nM
"IMPI-063 (antibody, V domains shown) VH: EVQLVESGGGVVRPGGSLRLSCAASGFTFDDYGMSWVRQAPGKGLEWVSGIYWNGGSTGYADSVKGRFTISRDNAKNSLYLQMNSLRAEDMALYYCARGVGATDYWGQGTLVTVSS VL: EIVLTQSPGTLSLSSGERATLACRASESVRGSFLAWYQQKPGQAPRLLIYGASRRATGIPDRFSGSGSGTDFTLTISRLEPEDFAVYYCQQYGNSPMCSFGQGTKLEIK [IMPI-063, listing 1 of 2 here]",Kd,[8],0.845 nM
same,koff,[8],7.77 s⁻¹
same,kon,[8],9.19e+09 M⁻¹ s⁻¹
same,Kd,[9],2.29 nM
same,koff,[9],0.000939 s⁻¹
same,kon,[9],411000 M⁻¹ s⁻¹
"IMPI-063 (antibody, V domains shown) VH: EVQLVESGGGVVRPGGSLRLSCAASGFTFDDYGMSWVRQAPGKGLEWVSGIYWNGGSTGYADSVKGRFTISRDNAKNSLYLQMNSLRAEDMALYYCARGVGATDYWGQGTLVTVSS VL: EIVLTQSPGTLSLSSGERATLACRASESVRGSFLAWYQQKPGQAPRLLIYGASRRATGIPDRFSGSGSGTDFTLTISRLEPEDFAVYYCQQYGNSPMCSFGQGTKLEIK [IMPI-063, listing 2 of 2 here]",binding result,[10],no binding (tested: up to 100 nM analyte)
"IMPI-068 (antibody, V domains shown) VH: QVQLVESGGDVVQPGRSLRLSCAASGFTFSRYGMHWVRQAPGKGLEWVAVISYDGSDKYYADSVKGRFTISRDNSKNTLYLQMNSLRAEDTAVYYCAKQLPLYYYYYGMDVWGQGTTVTVSS VL: AIQLTQSPSSLSASVGDRVTITCRASQGISSALAWYQQKPGKAPNLLIYDASSLESGVPSRFSGSGSGTDFTLTISSLQPEDFATYYCQQFNIYPHTFGPGTKVDIK",Kd,[3],9.47 nM
same,Kd,[4],2570 nM
"IMPI-013 (antibody, V domains shown) VH: EVQLVESGGGLVQPGRSLRLSCAASGFTFDDYAMHWVRQTPGKGLEWVSGISWNSGSIGYADSVKGRFTISRDNAKNSLYLQMNSLRAEDTALYYCTKDLGLGIGFYYGLDVWGQGTTVTVSS VL: AIQMTQSPSSLSTSVGDRVTITCRASQGIRNDLGWYQLKPGKAPKLLIYDASTLQSGVPSRFSGSGSGTDFTLTISSLEPEDLATYYCLHHYTYPWTFGHGTKVELK",Kd,[8],0.126 nM
same,Kd,[9],0.67 nM
"IMPI-013 (antibody, V domains shown, also called IMP-013) VH: EVQLVESGGGLVQPGRSLRLSCAASGFTFDDYAMHWVRQTPGKGLEWVSGISWNSGSIGYADSVKGRFTISRDNAKNSLYLQMNSLRAEDTALYYCTKDLGLGIGFYYGLDVWGQGTTVTVSS VL: AIQMTQSPSSLSTSVGDRVTITCRASQGIRNDLGWYQLKPGKAPKLLIYDASTLQSGVPSRFSGSGSGTDFTLTISSLEPEDLATYYCLHHYTYPWTFGHGTKVELK",binding result,[10],no binding (tested: up to 100 nM analyte)
"IMPI-004 (antibody, V domains shown) VH: QVQLVESGGGVVQPGRSLRLSCAASGFTFSSYGMHWVRQAPGKGLEWVAVIWYDGGNKYYADSVKGRFTISRDNSKNTLYLQMNSLRAEDTAVYYCARVNVLMGYGMDVWGQGTTVTVSS VL: EIVLTQSPGTLSLSPGDKATLSCRASQSIISSFLAWYQQKPGQAPRLLIYGASSRATGIPDRFSGSGSGTDFTLTISRLEPEDFAVYYCQQYGSSLTFGGGTKVEIK","IC50, live virus foci (plaque) reduction neutralisation assay on Vero cells",[1],13 ng/ml and 86 pM
"IMPI-055 (antibody, V domains shown) VH: QVQLVQSGAEVKKPGASVKVSCKASGYTFTSYDINWVRQATGQGLEWMGWMNPNSGNTGYAQKFQGRVTMTRDTSINTAYMELSSLRSEDTAVYFCARGGRYCSDVTCYSGEPFDYWGQGTLVTVSS VL: EIMLTQSPDFQSVTPKEKVTITCRASQSIGSSLHWYQQKPDQSPKLLIKFASQSISGVPSRFSGSGSGTDFTLTINSLEAEDAAAYYCHQSSSLPHTFGPGTKVEIK [IMPI-055, listing 1 of 2 here]",Kd,[3],1.85 nM
same,Kd,[4],1360 nM
"IMPI-055 (antibody, V domains shown) VH: QVQLVQSGAEVKKPGASVKVSCKASGYTFTSYDINWVRQATGQGLEWMGWMNPNSGNTGYAQKFQGRVTMTRDTSINTAYMELSSLRSEDTAVYFCARGGRYCSDVTCYSGEPFDYWGQGTLVTVSS VL: EIMLTQSPDFQSVTPKEKVTITCRASQSIGSSLHWYQQKPDQSPKLLIKFASQSISGVPSRFSGSGSGTDFTLTINSLEAEDAAAYYCHQSSSLPHTFGPGTKVEIK [IMPI-055, listing 2 of 2 here]",Kd,[2],< 1 nM
"IMPI-006 (antibody, V domains shown) VH: QLQLQESGPGLVKPSETLSLTCTVSGGSISNSNYYWGWIRQPPGKGLEWIGSIYYSGRTYYNPSLKSRVTISVDTSKNQFSLKLSSVTAADTAVYYCARMGLLWFGEFYGMDVWGQGTTVTVSS VL: DIQMTQSPSSLSASVGDRVTITCRASQGISSWLAWYQQKPEKAPKSLIYDASSLQRGVPSRFSGSGSGTDFTLTISSLQPEDFASYYCQQYNSYPLTFGGGTRVEIK",Kd,[2],< 1 nM
